In publication PMC9482650, “Quantitative fragmentomics allow affinity mapping of interactomes” (Nature Communications, 2022):

The binders below were run against MAST1, Q9Y2H9 (assay: holdup assay). Details: plain residues with an end cap or a label only (N-terminal biotin on a linker: ado-ado).
Design: key: below the threshold = too weak to quantify, mostly under pKd 3.1 to 4

MAST1, Q9Y2H9, sequence (Q9Y2H9 962-1065): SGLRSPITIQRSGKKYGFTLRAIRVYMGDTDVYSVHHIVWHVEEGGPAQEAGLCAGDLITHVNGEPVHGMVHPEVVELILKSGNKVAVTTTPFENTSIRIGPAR

Question: QKASRNESTF [POLR1D, P0DPB6] was tested. Which pKd did it give?
Answer: 4.08

What follows are binders tested against SCRIB_2, Q14160 (assay: holdup assay). Details: plain residues with an end cap or a label only (N-terminal biotin on a linker: ado-ado).
Design: key: below the threshold = too weak to quantify, mostly under pKd 3.1 to 4

SCRIB_2, Q14160, sequence (Q14160 857-960): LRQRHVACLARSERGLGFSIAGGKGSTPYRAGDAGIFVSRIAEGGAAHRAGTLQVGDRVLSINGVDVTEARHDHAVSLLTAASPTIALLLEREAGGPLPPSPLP

Question: How did the pKd turn out when QKASRNESTF [POLR1D, P0DPB6] was run?
Answer: below the threshold

What follows are binders tested against GRIP2_3, Q9C0E4 (assay: holdup assay). Details: plain residues with an end cap or a label only (N-terminal biotin on a linker: ado-ado).
Design: key: below the threshold = too weak to quantify, mostly under pKd 3.1 to 4

GRIP2_3, Q9C0E4, sequence (Q9C0E4 238-339): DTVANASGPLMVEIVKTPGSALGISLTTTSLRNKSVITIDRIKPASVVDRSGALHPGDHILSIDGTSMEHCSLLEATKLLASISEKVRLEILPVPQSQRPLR

Question: How did the pKd turn out when QKASRNESTF [POLR1D, P0DPB6] was run?
Answer: below the threshold

Each binder was assayed against GOPC, Q9HD26 (assay: holdup assay). Details: plain residues with an end cap or a label only (N-terminal biotin on a linker: ado-ado).
Design: key: below the threshold = too weak to quantify, mostly under pKd 3.1 to 4

Question: With QKASRNESTF [POLR1D, P0DPB6] as the binder, how does the pKd read?
Answer: below the threshold

The binders below were run against DLG2_2, Q15700 (assay: holdup assay). Details: plain residues with an end cap or a label only (N-terminal biotin on a linker: ado-ado).
Design: key: below the threshold = too weak to quantify, mostly under pKd 3.1 to 4

DLG2_2, Q15700, sequence (Q15700 189-283): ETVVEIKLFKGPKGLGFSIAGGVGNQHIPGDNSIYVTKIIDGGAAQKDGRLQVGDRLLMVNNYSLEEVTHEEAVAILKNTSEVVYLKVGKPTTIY

Question: QKASRNESTF [POLR1D, P0DPB6] was tested. Which pKd did it give?
Answer: below the threshold

What follows are binders tested against LDB3, O75112 (assay: holdup assay). Details: plain residues with an end cap or a label only (N-terminal biotin on a linker: ado-ado).
Design: key: below the threshold = too weak to quantify, mostly under pKd 3.1 to 4

LDB3, O75112, sequence (O75112 1-94): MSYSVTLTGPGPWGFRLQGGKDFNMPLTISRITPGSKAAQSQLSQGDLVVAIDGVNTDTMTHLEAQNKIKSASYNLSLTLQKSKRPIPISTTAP

Question: For QKASRNESTF [POLR1D, P0DPB6], which pKd is on record?
Answer: below the threshold

Each binder was assayed against T1, GRIP1_2, Q9Y3R0 (assay: holdup assay). Details: plain residues with an end cap or a label only (N-terminal biotin on a linker: ado-ado).
T1 sequence (Q9Y3R0 145-248, limits assumed, looked up): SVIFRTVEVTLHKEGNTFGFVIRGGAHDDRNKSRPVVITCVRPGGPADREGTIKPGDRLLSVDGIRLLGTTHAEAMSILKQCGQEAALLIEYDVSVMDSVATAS
Design: key: below the threshold = too weak to quantify, mostly under pKd 3.1 to 4

Question: How did the pKd turn out when QKASRNESTF [POLR1D, P0DPB6] was run?
Answer: below the threshold

What follows are binders tested against PICK1, Q9NRD5 (assay: holdup assay). Details: plain residues with an end cap or a label only (N-terminal biotin on a linker: ado-ado).
Design: key: below the threshold = too weak to quantify, mostly under pKd 3.1 to 4

PICK1, Q9NRD5, sequence (Q9NRD5 17-115): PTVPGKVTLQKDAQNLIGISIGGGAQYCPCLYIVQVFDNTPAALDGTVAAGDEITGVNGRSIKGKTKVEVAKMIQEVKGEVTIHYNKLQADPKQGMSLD

Question: How did the pKd turn out when QKASRNESTF [POLR1D, P0DPB6] was run?
Answer: 4.01

The binders below were run against T2, NHERF3_3, Q5T2W1 (assay: holdup assay). Details: plain residues with an end cap or a label only (N-terminal biotin on a linker: ado-ado).
T2 sequence (Q5T2W1 238-333, limits assumed, looked up): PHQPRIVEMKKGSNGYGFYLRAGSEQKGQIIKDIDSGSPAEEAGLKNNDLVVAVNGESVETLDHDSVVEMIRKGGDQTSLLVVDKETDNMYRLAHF
Design: key: below the threshold = too weak to quantify, mostly under pKd 3.1 to 4

Question: How did the pKd turn out when QKASRNESTF [POLR1D, P0DPB6] was run?
Answer: below the threshold

The binders below were run against PTPN3, P26045 (assay: holdup assay). Details: plain residues with an end cap or a label only (N-terminal biotin on a linker: ado-ado).
Design: key: below the threshold = too weak to quantify, mostly under pKd 3.1 to 4

PTPN3, P26045, sequence (P26045 505-587): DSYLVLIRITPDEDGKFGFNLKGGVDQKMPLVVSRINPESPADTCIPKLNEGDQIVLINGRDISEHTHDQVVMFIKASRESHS

Question: With QKASRNESTF [POLR1D, P0DPB6] as the binder, how does the pKd read?
Answer: 4.62

These binders were tested against NHERF4_2, Q86UT5 (assay: holdup assay). Details: plain residues with an end cap or a label only (N-terminal biotin on a linker: ado-ado).
Design: key: below the threshold = too weak to quantify, mostly under pKd 3.1 to 4

NHERF4_2, Q86UT5, sequence (Q86UT5 220-308): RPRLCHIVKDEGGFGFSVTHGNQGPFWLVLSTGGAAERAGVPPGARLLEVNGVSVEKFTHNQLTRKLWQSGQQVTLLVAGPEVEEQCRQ

Question: QKASRNESTF [POLR1D, P0DPB6] was tested. Which pKd did it give?
Answer: below the threshold

These binders were tested against T3, CARD11, Q9BXL7 (assay: holdup assay). Details: plain residues with an end cap or a label only (N-terminal biotin on a linker: ado-ado).
T3 sequence (Q9BXL7 662-765, limits assumed, looked up): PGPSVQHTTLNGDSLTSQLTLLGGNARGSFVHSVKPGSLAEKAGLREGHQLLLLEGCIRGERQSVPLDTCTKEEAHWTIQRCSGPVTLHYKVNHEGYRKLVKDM
Design: key: below the threshold = too weak to quantify, mostly under pKd 3.1 to 4

Question: Which pKd does the source give for QKASRNESTF [POLR1D, P0DPB6] here?
Answer: below the threshold

Each binder was assayed against T4, PDZD2_2, O15018 (assay: holdup assay). Details: plain residues with an end cap or a label only (N-terminal biotin on a linker: ado-ado).
T4 sequence (O15018 329-429, limits assumed, looked up): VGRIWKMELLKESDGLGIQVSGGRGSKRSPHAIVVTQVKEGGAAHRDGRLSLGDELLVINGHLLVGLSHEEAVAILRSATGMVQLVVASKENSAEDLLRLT
Design: key: below the threshold = too weak to quantify, mostly under pKd 3.1 to 4

Question: For QKASRNESTF [POLR1D, P0DPB6], which pKd is on record?
Answer: below the threshold

These binders were tested against T5, SNTA1, Q13424 (assay: holdup assay). Details: plain residues with an end cap or a label only (N-terminal biotin on a linker: ado-ado).
T5 sequence (Q13424 82-180, limits assumed, looked up): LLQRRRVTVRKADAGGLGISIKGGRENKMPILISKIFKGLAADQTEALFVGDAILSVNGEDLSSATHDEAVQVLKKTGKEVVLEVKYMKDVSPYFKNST
Design: key: below the threshold = too weak to quantify, mostly under pKd 3.1 to 4

Question: With QKASRNESTF [POLR1D, P0DPB6] as the binder, how does the pKd read?
Answer: below the threshold

These binders were tested against FRMPD2_1, Q68DX3 (assay: holdup assay). Details: plain residues with an end cap or a label only (N-terminal biotin on a linker: ado-ado).
Design: key: below the threshold = too weak to quantify, mostly under pKd 3.1 to 4

FRMPD2_1, Q68DX3, sequence (Q68DX3 770-861): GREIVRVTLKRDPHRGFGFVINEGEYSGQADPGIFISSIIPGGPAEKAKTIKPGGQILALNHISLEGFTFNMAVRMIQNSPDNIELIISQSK

Question: Which pKd does the source give for QKASRNESTF [POLR1D, P0DPB6] here?
Answer: below the threshold

What follows are binders tested against Inadl_6, Q8NI35 (assay: holdup assay). Details: plain residues with an end cap or a label only (N-terminal biotin on a linker: ado-ado).
Design: key: below the threshold = too weak to quantify, mostly under pKd 3.1 to 4

Inadl_6, Q8NI35, sequence (Q8NI35 1058-1167): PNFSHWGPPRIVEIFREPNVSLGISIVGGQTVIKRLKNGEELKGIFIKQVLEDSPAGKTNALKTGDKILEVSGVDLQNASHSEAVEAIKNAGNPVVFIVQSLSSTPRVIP

Question: For QKASRNESTF [POLR1D, P0DPB6], which pKd is on record?
Answer: below the threshold

What follows are binders tested against MAGI2_4, Q86UL8 (assay: holdup assay). Details: plain residues with an end cap or a label only (N-terminal biotin on a linker: ado-ado).
Design: key: below the threshold = too weak to quantify, mostly under pKd 3.1 to 4

MAGI2_4, Q86UL8, sequence (Q86UL8 772-865): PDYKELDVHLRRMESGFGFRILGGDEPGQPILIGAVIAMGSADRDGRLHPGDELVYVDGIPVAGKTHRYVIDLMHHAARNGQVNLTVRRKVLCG

Question: Which pKd does the source give for QKASRNESTF [POLR1D, P0DPB6] here?
Answer: 3.88

What follows are binders tested against MAGI2_3, Q86UL8 (assay: holdup assay). Details: plain residues with an end cap or a label only (N-terminal biotin on a linker: ado-ado).
Design: key: below the threshold = too weak to quantify, mostly under pKd 3.1 to 4

MAGI2_3, Q86UL8, sequence (Q86UL8 600-682): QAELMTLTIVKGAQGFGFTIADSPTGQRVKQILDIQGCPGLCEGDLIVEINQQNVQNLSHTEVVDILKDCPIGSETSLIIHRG

Question: With QKASRNESTF [POLR1D, P0DPB6] as the binder, how does the pKd read?
Answer: below the threshold

What follows are binders tested against T6, NHERF3_4, Q5T2W1 (assay: holdup assay). Details: plain residues with an end cap or a label only (N-terminal biotin on a linker: ado-ado).
T6 sequence (Q5T2W1 373-468, limits assumed, looked up): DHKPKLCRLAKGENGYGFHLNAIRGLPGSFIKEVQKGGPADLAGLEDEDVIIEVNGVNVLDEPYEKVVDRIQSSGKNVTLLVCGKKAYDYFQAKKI
Design: key: below the threshold = too weak to quantify, mostly under pKd 3.1 to 4

Question: QKASRNESTF [POLR1D, P0DPB6] was tested. Which pKd did it give?
Answer: below the threshold

These binders were tested against MAGI2_5, Q86UL8 (assay: holdup assay). Details: plain residues with an end cap or a label only (N-terminal biotin on a linker: ado-ado).
Design: key: below the threshold = too weak to quantify, mostly under pKd 3.1 to 4

MAGI2_5, Q86UL8, sequence (Q86UL8 915-1017): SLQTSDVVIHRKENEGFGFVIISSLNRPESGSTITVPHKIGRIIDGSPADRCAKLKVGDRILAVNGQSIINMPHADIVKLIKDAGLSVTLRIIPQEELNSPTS

Question: For QKASRNESTF [POLR1D, P0DPB6], which pKd is on record?
Answer: below the threshold

Each binder was assayed against HTRA1, Q92743 (assay: holdup assay). Details: plain residues with an end cap or a label only (N-terminal biotin on a linker: ado-ado).
Design: key: below the threshold = too weak to quantify, mostly under pKd 3.1 to 4

HTRA1, Q92743, sequence (Q92743 360-477): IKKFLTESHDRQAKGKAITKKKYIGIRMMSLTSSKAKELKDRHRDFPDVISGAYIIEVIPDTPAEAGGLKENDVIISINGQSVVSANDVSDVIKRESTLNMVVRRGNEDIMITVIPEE

Question: Which pKd does the source give for QKASRNESTF [POLR1D, P0DPB6] here?
Answer: below the threshold

The binders below were run against Inadl_5, Q8NI35 (assay: holdup assay). Details: plain residues with an end cap or a label only (N-terminal biotin on a linker: ado-ado).
Design: key: below the threshold = too weak to quantify, mostly under pKd 3.1 to 4

Inadl_5, Q8NI35, sequence (Q8NI35 673-780): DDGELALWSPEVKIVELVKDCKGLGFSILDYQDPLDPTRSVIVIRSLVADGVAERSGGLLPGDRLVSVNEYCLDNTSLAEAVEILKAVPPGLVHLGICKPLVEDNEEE

Question: With QKASRNESTF [POLR1D, P0DPB6] as the binder, how does the pKd read?
Answer: below the threshold

Each binder was assayed against LNX1_3, Q8TBB1 (assay: holdup assay). Details: plain residues with an end cap or a label only (N-terminal biotin on a linker: ado-ado).
Design: key: below the threshold = too weak to quantify, mostly under pKd 3.1 to 4

LNX1_3, Q8TBB1, sequence (Q8TBB1 500-596): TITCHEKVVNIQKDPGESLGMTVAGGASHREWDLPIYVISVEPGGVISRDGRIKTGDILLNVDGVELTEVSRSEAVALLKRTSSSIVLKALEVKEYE

Question: Which pKd does the source give for QKASRNESTF [POLR1D, P0DPB6] here?
Answer: below the threshold

Each binder was assayed against T7, HTRA4, P83105 (assay: holdup assay). Details: plain residues with an end cap or a label only (N-terminal biotin on a linker: ado-ado).
T7 sequence (P83105 378-476, limits assumed, looked up): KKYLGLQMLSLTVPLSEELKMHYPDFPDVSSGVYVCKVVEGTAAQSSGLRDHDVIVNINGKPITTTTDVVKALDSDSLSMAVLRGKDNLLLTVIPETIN
Design: key: below the threshold = too weak to quantify, mostly under pKd 3.1 to 4

Question: How did the pKd turn out when QKASRNESTF [POLR1D, P0DPB6] was run?
Answer: below the threshold

What follows are binders tested against GRIP2_4, Q9C0E4 (assay: holdup assay). Details: plain residues with an end cap or a label only (N-terminal biotin on a linker: ado-ado).
Design: key: below the threshold = too weak to quantify, mostly under pKd 3.1 to 4

GRIP2_4, Q9C0E4, sequence (Q9C0E4 446-548): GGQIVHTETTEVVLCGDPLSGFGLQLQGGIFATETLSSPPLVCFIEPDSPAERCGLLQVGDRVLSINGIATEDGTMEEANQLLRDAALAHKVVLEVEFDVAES

Question: QKASRNESTF [POLR1D, P0DPB6] was tested. Which pKd did it give?
Answer: below the threshold

Each binder was assayed against T8, SIPA1L2, Q9P2F8 (assay: holdup assay). Details: plain residues with an end cap or a label only (N-terminal biotin on a linker: ado-ado).
T8 sequence (Q9P2F8 945-1036, limits assumed, looked up): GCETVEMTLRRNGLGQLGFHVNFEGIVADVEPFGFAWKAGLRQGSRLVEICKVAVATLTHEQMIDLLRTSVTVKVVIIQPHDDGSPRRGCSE
Design: key: below the threshold = too weak to quantify, mostly under pKd 3.1 to 4

Question: Which pKd does the source give for QKASRNESTF [POLR1D, P0DPB6] here?
Answer: below the threshold

The binders below were run against T9, TJP3_3, O95049 (assay: holdup assay). Details: plain residues with an end cap or a label only (N-terminal biotin on a linker: ado-ado).
T9 sequence (O95049 375-456, limits assumed, looked up): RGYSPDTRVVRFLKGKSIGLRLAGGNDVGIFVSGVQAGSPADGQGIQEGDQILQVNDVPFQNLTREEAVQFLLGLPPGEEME
Design: key: below the threshold = too weak to quantify, mostly under pKd 3.1 to 4

Question: With QKASRNESTF [POLR1D, P0DPB6] as the binder, how does the pKd read?
Answer: below the threshold

What follows are binders tested against T10, SNTG1, Q9NSN8 (assay: holdup assay). Details: plain residues with an end cap or a label only (N-terminal biotin on a linker: ado-ado).
T10 sequence (Q9NSN8 52-150, limits assumed, looked up): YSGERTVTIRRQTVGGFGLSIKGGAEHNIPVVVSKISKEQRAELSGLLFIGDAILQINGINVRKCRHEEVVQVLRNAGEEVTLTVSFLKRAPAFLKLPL
Design: key: below the threshold = too weak to quantify, mostly under pKd 3.1 to 4

Question: With QKASRNESTF [POLR1D, P0DPB6] as the binder, how does the pKd read?
Answer: below the threshold

These binders were tested against CASK, O14936 (assay: holdup assay). Details: plain residues with an end cap or a label only (N-terminal biotin on a linker: ado-ado).
Design: key: below the threshold = too weak to quantify, mostly under pKd 3.1 to 4

CASK, O14936, sequence (O14936 487-570): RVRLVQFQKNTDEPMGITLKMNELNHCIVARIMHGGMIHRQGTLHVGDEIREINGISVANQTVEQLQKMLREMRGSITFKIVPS

Question: Which pKd does the source give for QKASRNESTF [POLR1D, P0DPB6] here?
Answer: below the threshold
